Measurements from patent publication US20250230251A1 (Bristol-Myers Squibb, published 2025).
Numbering of substitutions follows the chain as printed. Where two headings read alike, the source gives them in different places. Each block holds one binder with its values, some of them ahead of it.

Legend:
[1] = target: T1, human IL-18Rβ on cells (human, UniProt O95256 20-599); test: cell-based or functional assay
T1 sequence: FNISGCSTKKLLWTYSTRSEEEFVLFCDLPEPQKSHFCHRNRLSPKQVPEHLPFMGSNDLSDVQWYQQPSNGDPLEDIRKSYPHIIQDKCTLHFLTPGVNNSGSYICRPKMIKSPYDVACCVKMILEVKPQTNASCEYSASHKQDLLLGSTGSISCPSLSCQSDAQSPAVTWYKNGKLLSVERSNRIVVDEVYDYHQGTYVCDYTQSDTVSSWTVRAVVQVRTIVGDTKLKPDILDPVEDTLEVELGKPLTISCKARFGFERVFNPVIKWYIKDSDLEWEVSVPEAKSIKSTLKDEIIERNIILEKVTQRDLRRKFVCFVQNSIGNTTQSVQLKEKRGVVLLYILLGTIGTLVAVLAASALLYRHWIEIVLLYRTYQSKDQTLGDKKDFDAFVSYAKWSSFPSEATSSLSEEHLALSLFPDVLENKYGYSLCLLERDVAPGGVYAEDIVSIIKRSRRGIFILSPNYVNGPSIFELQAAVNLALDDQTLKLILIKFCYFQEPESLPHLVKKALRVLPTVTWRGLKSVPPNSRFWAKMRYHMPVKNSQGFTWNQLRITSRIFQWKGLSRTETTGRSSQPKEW

[2] = target: T2, huIL-18Rβ-HisAvi (human, UniProt O95256 20-356, biotinylated in the Octet blocking assay); test: SPR T200, mAb on anti-hFc, 37C, pH 6
T2 construct: Soluble analyte in all SPR runs; captured on streptavidin sensors in the Octet assay; also called human IL-18Rβ; human IL-18Rβ-Avi-His
T2 sequence: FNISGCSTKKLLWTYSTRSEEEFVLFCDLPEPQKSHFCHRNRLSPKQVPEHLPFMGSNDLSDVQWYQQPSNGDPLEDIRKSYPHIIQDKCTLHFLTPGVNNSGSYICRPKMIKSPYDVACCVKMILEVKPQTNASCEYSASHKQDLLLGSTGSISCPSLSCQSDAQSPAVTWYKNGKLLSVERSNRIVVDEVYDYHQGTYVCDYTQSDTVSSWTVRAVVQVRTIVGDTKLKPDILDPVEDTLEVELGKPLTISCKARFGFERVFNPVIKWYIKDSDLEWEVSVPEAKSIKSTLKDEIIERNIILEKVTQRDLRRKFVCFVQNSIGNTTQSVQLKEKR

[3] = target: T3, cyIL-18Rβ-HisAvi (cynomolgus monkey); test: SPR T200, mAb on anti-hFc, 37C, pH 6
T3 construct: Soluble analyte in SPR; also called cyno IL-18Rβ; cynomolgus monkey IL-18Rβ
T3 chain: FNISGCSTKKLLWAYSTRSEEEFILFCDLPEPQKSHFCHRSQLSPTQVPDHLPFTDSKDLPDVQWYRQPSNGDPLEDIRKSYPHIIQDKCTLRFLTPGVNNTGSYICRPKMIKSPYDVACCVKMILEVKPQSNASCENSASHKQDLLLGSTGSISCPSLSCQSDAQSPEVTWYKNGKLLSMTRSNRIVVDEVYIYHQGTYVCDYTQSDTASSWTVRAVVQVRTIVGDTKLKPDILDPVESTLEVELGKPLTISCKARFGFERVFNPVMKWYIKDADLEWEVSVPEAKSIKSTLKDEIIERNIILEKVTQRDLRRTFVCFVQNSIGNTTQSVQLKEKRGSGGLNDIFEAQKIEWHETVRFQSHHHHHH

[4] = target: T2, huIL-18Rβ-HisAvi; test: SPR T200, mAb on anti-hFc, 37C, pH 7.4
[5] = target: T3, cyIL-18Rβ-HisAvi; test: SPR T200, mAb on anti-hFc, 37C, pH 7.4
[6] = target: T2, huIL-18Rβ-HisAvi; test: SPR T200, pH 7; sample 4 w 4C
[7] = target: T2, huIL-18Rβ-HisAvi; test: SPR T200, pH 7; sample 2 w 40C
[8] = target: T2, huIL-18Rβ-HisAvi; test: SPR T200, pH 7; sample T0
[9] = target: T2, huIL-18Rβ-HisAvi; test: SPR T200, pH 7; sample 4 w 40C
[10] = target: T2, huIL-18Rβ-HisAvi; test: SPR screen, 1:1 fit
[11] = target: T1, human IL-18Rβ on cells; test: cell-based or functional assay; remark: listed apart in the source
[12] = target: T2, huIL-18Rβ-HisAvi; test: SPR Biacore T200, mAb captured on anti-human Fc, huIL-18Rβ-HisAvi as analyte, PBST pH 6.0, 37 °C, 1:1 Binding fit
[13] = target: T2, huIL-18Rβ-HisAvi; test: SPR T200, pH 5 against pH 7.4
[14] = target: T2, huIL-18Rβ-HisAvi; test: SPR Biacore T200, mAb captured on anti-human Fc, huIL-18Rβ-HisAvi as analyte, PBST pH 5.5, 37 °C, 1:1 Binding fit
[15] = target: T2, huIL-18Rβ-HisAvi; test: SPR T200, mAb on anti-hFc, 37C, pH 7.4; sample stored at pH 6, T0
[16] = target: T2, huIL-18Rβ-HisAvi; test: SPR T200, mAb on anti-hFc, 37C, pH 7.4; remark: listed apart in the source
[17] = target: T2, huIL-18Rβ-HisAvi; test: SPR T200, mAb on anti-hFc, 37C, pH 7.4; remark: listed apart in the source
[18] = target: T1, human IL-18Rβ on cells; test: cell-based or functional assay; remark: listed apart in the source
[19] = target: T2, huIL-18Rβ-HisAvi; test: SPR T200, pH 7.4; sample stored at pH 6, 4 w 4C
[20] = target: T2, huIL-18Rβ-HisAvi; test: SPR T200, pH 7.4; sample stored at pH 8, 4 w 4C
[21] = target: T1, human IL-18Rβ on cells; test: cell-based or functional assay; remark: listed apart in the source
[22] = target: T2, huIL-18Rβ-HisAvi; test: SPR T200, mAb on anti-hFc, 37C, pH 5
[23] = target: T2, huIL-18Rβ-HisAvi; test: SPR T200, pH 7.4; sample stored at pH 8, 4 w 40C
[24] = target: T2, huIL-18Rβ-HisAvi; test: SPR T200, pH 7.4; sample stored at pH 8, T0
[25] = target: T2, huIL-18Rβ-HisAvi; test: SPR T200, pH 7.4; sample stored at pH 6, 4 w 40C
[26] = target: the molecule itself; test: clone self-interaction BLI, antibody on AHQ sensor against 1 µM of the same antibody
[27] = target: T2, huIL-18Rβ-HisAvi; test: SPR T200, mAb on anti-hFc, 37C, pH 6; remark: listed apart in the source

Average IC50, LPS+IL-12 dependent IFNg production, human whole blood [1]: 1.52 nM | Kd [2]: 0.36 nM | koff [2]: 0.00014 s⁻¹ | kon [2]: 390000 M⁻¹ s⁻¹ | Kd [3]: 2.4 nM | koff [3]: 0.00042 s⁻¹ | kon [3]: 180000 M⁻¹ s⁻¹ | Kd [4]: 0.72 nM | koff [4]: 0.00019 s⁻¹ | kon [4]: 270000 M⁻¹ s⁻¹ | Kd [5]: 1.5 nM | koff [5]: 0.0003 s⁻¹ | kon [5]: 200000 M⁻¹ s⁻¹
B1: P20-V3 (antibody, human IgG1, kappa, V domains shown)
VH: QVQLQESGPGLVKPSETLSLTCTVSGGSINNYYWSWIRQPPGKGLEWIGYIFYSGTTNYNPSLKSRVTISVDTSKNQFSLKLSSVTAADTAVYYCARDVGIAARNSYYYVMDVWGQGTTVTVSS
VL: AIQLTQSPSSLSASVGDRVTITCRASQGISSALAWYQQKPGKAPKFLIYGASSLESGVPSRFSGSGSGTDFTLTISSLQPEDFATYYCQQFNSYPITFGQGTRLEIKR
notes: Variant of P20

Kd [6]: 0.24 nM | koff [6]: 6.5e-05 s⁻¹ | kon [6]: 270000 M⁻¹ s⁻¹ | Average IC50, LPS+IL-12 dependent IFNg production, human whole blood [1]: 1.23 nM | Kd [2]: 0.37 nM | koff [2]: 0.00017 s⁻¹ | kon [2]: 460000 M⁻¹ s⁻¹ | Kd [3]: 13 nM | koff [3]: 0.0031 s⁻¹ | kon [3]: 250000 M⁻¹ s⁻¹ | Kd [4]: 0.63 nM | koff [4]: 0.00022 s⁻¹ | kon [4]: 360000 M⁻¹ s⁻¹ | Kd [5]: 8.7 nM | koff [5]: 0.0047 s⁻¹ | kon [5]: 540000 M⁻¹ s⁻¹ | Kd [7]: 0.18 nM | koff [7]: 4.9e-05 s⁻¹ | kon [7]: 270000 M⁻¹ s⁻¹ | Kd [8]: 0.26 nM | koff [8]: 7.2e-05 s⁻¹ | kon [8]: 270000 M⁻¹ s⁻¹ | Kd [9]: 0.51 nM | koff [9]: 0.00014 s⁻¹ | kon [9]: 280000 M⁻¹ s⁻¹
B2: P21-V1 (antibody, human IgG1, kappa, V domains shown)
VH: QVQLQESGPGLVKPSETLSLTCTVSGGSISNYYWTWIRQPPGKGLEWIGYISDSGSTNYNPSLKSRVTISVDTSKNQFSLKLSSVTAADTAVYYCARETIVVRGFYFYVMDVWGQGTTVTVSS
VL: B1 VL with F46L, G50E, S53N, L54W, I96W, R103K, L104V
notes: Variant of P21

Kd [10]: 0.094 nM | IC50, LPS+IL-12 dependent IFNg production, human whole blood [11]: 0.3 nM | y-max, LPS+IL-12 dependent IFNg production, human whole blood [11]: 98% | Kd [12]: 1.24 nM | koff [12]: 0.000504 s⁻¹ | kon [12]: 405000 M⁻¹ s⁻¹ | KD ratio (KD pH 5/KD pH 7) [13]: 0.33 | kd ratio (kd pH 5/kd pH 7) [13]: 0.57 | Kd [14]: 1.08 nM | koff [14]: 0.000511 s⁻¹ | kon [14]: 472000 M⁻¹ s⁻¹ | Kd [15]: 0.83 nM | koff [15]: 0.00047 s⁻¹ | kon [15]: 570000 M⁻¹ s⁻¹ | Kd [16]: 0.96 nM | koff [16]: 0.0005 s⁻¹ | kon [16]: 520000 M⁻¹ s⁻¹ | Kd [17]: 1.2 nM | koff [17]: 0.00038 s⁻¹ | kon [17]: 310000 M⁻¹ s⁻¹ | IC50, IL-18-induced IFNγ release, KG-1 cells [18]: 0.3 nM | Kd [19]: 0.8 nM | koff [19]: 0.00045 s⁻¹ | kon [19]: 570000 M⁻¹ s⁻¹ | Kd [20]: 0.81 nM | koff [20]: 0.00043 s⁻¹ | kon [20]: 520000 M⁻¹ s⁻¹ | IC50, LPS+IL-12 dependent IFNg production, human whole blood [21]: 1.12 nM | Kd [22]: 0.41 nM | koff [22]: 0.00022 s⁻¹ | kon [22]: 530000 M⁻¹ s⁻¹ | Kd [23]: 0.78 nM | koff [23]: 0.00046 s⁻¹ | kon [23]: 590000 M⁻¹ s⁻¹ | Kd [24]: 0.85 nM | koff [24]: 0.00046 s⁻¹ | kon [24]: 540000 M⁻¹ s⁻¹ | Kd [25]: 0.6 nM | koff [25]: 0.00044 s⁻¹ | kon [25]: 730000 M⁻¹ s⁻¹ | Kd [27]: 0.18 nM | koff [27]: 0.00024 s⁻¹ | kon [27]: 1.4e+06 M⁻¹ s⁻¹
B3: P8 (antibody, human IgG1, kappa)
heavy: QVQLVQSGAEVKKPGASVRVSCKASGYTFTSYYMHWVRQAPGQGLEWMGIINPRGGYTTYAQKFQGRVTMTRDTSTSTVYMELSSLRSEDTAVYYCAKEGRVSPTDYYGMDVWGQGTTVTVSSASTKGPSVFPLAPSSKSTSGGTAALGCLVKDYFPEPVTVSWNSGALTSGVHTFPAVLQSSGLYSLSSVVTVPSSSLGTQTYICNVNHKPSNTKVDKRVEPKSCDKTHTCPPCPAPEAEGAPSVFLFPPKPKDTLMISRTPEVTCVVVDVSHEDPEVKFNWYVDGVEVHNAKTKPREEQYNSTYRVVSVLTVLHQDWLNGKEYKCKVSNKALPAPIEKTISKAKGQPREPQVYTLPPSREEMTKNQVSLTCLVKGFYPSDIAVEWESNGQPENNYKTTPPVLDSDGSFFLYSKLTVDKSRWQQGNVFSCSVMHEALHNHYTQKSLSLSPG
light: not shown
notes: Human IgG
Average CSI-BLI ΔResponse [26]: -0.01 nm
